# Experimental data published in US8173771B2, “Humanin receptor or humanin-like polypeptide receptor” (Keio Univeristy, priority 2005, dated 2012).
# T1: PCN cells (Mus musculus, UniProt O70394+O88507)
# T1 construct: endogenous in cells; host or cells: mouse primary cortical neurons (PCN), E14 ICR mice
# T1 sequence (O70394 25-623): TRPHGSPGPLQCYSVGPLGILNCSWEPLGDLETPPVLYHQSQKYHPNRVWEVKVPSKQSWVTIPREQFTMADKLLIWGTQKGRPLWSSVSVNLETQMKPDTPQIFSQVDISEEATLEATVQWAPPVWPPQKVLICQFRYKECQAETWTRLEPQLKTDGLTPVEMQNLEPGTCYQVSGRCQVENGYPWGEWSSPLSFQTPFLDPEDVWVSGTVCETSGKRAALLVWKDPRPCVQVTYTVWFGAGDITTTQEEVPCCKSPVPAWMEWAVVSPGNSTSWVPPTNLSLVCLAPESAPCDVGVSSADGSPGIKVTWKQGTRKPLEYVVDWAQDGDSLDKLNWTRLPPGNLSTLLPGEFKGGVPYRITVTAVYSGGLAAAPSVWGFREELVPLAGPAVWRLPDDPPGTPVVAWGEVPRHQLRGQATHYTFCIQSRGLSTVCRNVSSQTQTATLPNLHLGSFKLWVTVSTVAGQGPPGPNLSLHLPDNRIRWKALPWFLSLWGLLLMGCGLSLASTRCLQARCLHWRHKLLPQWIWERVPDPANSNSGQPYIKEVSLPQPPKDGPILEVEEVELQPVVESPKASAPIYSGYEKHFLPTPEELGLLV
# T1 sequence (O88507 23-342 limits assumed): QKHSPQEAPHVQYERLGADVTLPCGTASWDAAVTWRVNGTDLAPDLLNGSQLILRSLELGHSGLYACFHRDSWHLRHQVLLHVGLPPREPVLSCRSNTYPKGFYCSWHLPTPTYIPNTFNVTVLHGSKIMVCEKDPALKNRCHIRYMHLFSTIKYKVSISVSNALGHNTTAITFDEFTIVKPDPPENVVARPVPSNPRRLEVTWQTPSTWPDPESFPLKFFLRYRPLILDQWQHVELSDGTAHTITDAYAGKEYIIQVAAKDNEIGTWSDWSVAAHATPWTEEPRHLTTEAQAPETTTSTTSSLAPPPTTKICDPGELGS
# T1 sequence (Q00560 23-917 partner): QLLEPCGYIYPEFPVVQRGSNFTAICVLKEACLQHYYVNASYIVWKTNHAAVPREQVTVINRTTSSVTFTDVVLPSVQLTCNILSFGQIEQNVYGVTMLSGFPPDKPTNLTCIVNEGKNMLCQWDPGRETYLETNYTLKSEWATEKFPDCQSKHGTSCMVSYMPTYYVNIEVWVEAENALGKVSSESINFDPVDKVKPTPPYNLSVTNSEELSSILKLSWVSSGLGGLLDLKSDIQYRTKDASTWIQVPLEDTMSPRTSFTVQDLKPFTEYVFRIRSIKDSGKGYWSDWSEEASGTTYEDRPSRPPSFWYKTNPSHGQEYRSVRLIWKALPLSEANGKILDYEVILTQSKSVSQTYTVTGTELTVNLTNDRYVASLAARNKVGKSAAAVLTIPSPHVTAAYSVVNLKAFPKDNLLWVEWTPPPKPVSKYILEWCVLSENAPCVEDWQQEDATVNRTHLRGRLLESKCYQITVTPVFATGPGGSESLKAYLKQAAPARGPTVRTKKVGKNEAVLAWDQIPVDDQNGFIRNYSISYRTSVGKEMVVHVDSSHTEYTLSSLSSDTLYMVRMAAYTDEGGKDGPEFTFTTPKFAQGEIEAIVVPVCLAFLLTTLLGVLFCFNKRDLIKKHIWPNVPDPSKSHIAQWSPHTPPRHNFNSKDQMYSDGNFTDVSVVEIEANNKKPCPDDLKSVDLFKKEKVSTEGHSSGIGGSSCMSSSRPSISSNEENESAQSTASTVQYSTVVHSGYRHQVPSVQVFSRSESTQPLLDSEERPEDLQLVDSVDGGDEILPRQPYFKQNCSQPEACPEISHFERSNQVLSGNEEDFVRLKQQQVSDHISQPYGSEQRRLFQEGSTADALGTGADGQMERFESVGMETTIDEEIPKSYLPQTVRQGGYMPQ
# Experiments:
# [1] = system: primary cortical neurons (PCNs); assay: Aβ neurotoxicity in primary cortical neurons, WST-8 / Calcein / LDH; type: cell-based, mouse
# Experimental: B) PCNs were incubated with 25 μM Aβ (upper) in the presence of 10 μg of recombinant soluble human gp130 (lower “+”) or BSA (lower “−”). Cell viability was determined by WST-8 assay (upper) or Calcein fluorescence assay (lower) at 72 hr after the onset of treatment with Aβ.
# C) PCNs were incubated with 25 μM Aβ (1-43) in the presence of 1 μg of neutralizing anti-mouse gp130 antibody (RX435) or control IgG. Cell viability and cell mortality were determined by Calcein fluorescence (left panel) and LDH assays (right panel), respectively, at 72 hr after the onset of treatment with Aβ (1-43).
# […] At 72 hr after incubation, the cells were harvested for WST-8 assays or/and Calcein fluorescence assays to show cell viability.
# B) The soluble IL-6 receptor-α (sIL-6R) or the soluble CNTF-R (100 ng/ml) were added to the cells as in the above A), followed by the stimulation with its ligand, IL-6 or CNTF (100 ng/ml), respectively to show the effects on the neuronal cell death due to Aβ. The right and left graphs show the cell viabilities determined by WST-8 assays and Calcein fluorescence assays, respectively.
# C) The neutralizing antibodies (1 μg) for the mouse gp130, mouse LIFR, mouse IL-11R and rat CNTF-R were added as in the above A), and cell viability was determined by Calcein fluorescence assays after 72 hours.
# WST-8 assay was performed at 72 hrs after the treatment.
# The primary culture of mouse cortical neurons was prepared as described previously (Sudo et al., 2000). Briefly, primary cortical neurons, obtained from embryonic day 14 (E14) ICR mice were seeded in poly-L-lysine-coated 96 well plates (Sumitomo Bakelite) at 2.5 or 5.0×10^4 cells/well in Neuron Medium (Sumitomo Bakelite) (Hashimoto et al., 2003; Niikura et al., 2004). Purity of neurons by this method was >98%. After 3 days, the culture medium was replaced with DMEM with N2 supplement. On the fourth day in vitro, 25 μM of Aβ (1-42) was added in association with indicated concentrations of HN or cytokines in the presence or the absence of soluble cytokine receptors or neutralizing antibodies. At 72 hrs after the onset of treatment, cell viability was assessed by WST-8 assay and/or Calcein fluorescence assay and cell mortality was assessed by the Trypan blue exclusion assay and LDH assay (Hashimoto et al, 2000, 2001 a b, 2003).
# PCN cells = molecular target: T1, PCN cells; assay: Immunofluorescence-based binding assay (2) on PCN, competition with unlabeled cytokines; conditions: similar range as IL-27; 10 nM biotin-HNG
# Experimental: After 6 hrs incubation, they were fixed with 4% paraformaldehyde in PBS for 30 min. After washing with PBS, cells were stained with FITC-conjugated avidin (Molecularprobe, Eugene, Oreg., USA). Immunofluorescence intensity was measured (excitation=485 nm, emission=535 nm) with a spectrofluorometer (Wallac1420 ARVOsx Multi Label Counter). Immunohistochemical analysis was done with a laser-scanning, confocal microscope LSM (Carl Zeiss, Germany).
molecule,measurement,setting,value
"IL-6: interleukin-6, recombinant cytokine (protein, UniProt P20607 25-211, looked up) Interleukin-6: FPTSQVRRGDFTEDTTHNRPVYTTSQVGGLITYVLREILEMRKELCNGNSDCMNSDDALSENNLKLPEIQRNDGCFQTGYNQEICLLKICSGLLEFRFYLEFVKNNLQDNKKDKARVIQSNTETLVHIFKQEIKDSYKIVLPTPTSNALLMEKLESQKEWLRTKTIQLILKALEEFLKVTMRSTRQT",mimicry of HN in neuroprotection against neuronal cell death by Aβ,[1]; cytokine 100 ng/ml with its soluble receptor (sIL-6R or soluble CNTF receptor) 100 ng/ml,completely mimicked HN
same,inhibition of neurotoxicity by Aβ,"[1]; cytokine alone, physiological levels (up to 100 ng/ml), 25 μM Aβ",did not inhibit
same,inhibition of the binding of HN to PCN,PCN cells,did not show such effect
